Data reported in patent publication US20240000957A1 (published 2024).
*1 amine or outer side, *2 acyl side, *3 side chain or, on linkers, in order; H or OH if unused. Bridges are numbered along the chain shown (N, C = ends). Where no end group is shown, it is not given here. [ ]: non-standard residue; d: D form. TATA = O=C(CC[*:1])N1CN(C(=O)CC[*:2])CN(C(=O)CC[*:3])C1; Hyp = O=C(O)[C@@H]1C[C@@H](O)CN1; hArg = N=C(N)NCCCC[C@H](N)C(=O)O; βAla = NCCC(=O)O; Sar = CNCC(=O)O

B1: BCY6106 (peptide)
peptide: AXDCPLVNPLCLHPGWTC
modifications: not fully specified; as BCY6014 (N-terminal (β-Ala)-Sar10; HArg; TATA scaffold on the 3 Cys) + MMAE-D-Ala-Phe-Lys-
notes: Bicycle drug conjugate (BDC)
B2: BCY6039 (peptide)
peptide: AXDCPLVNPLCLHPGWTC
modifications: not fully specified; as BCY6014 (N-terminal (β-Ala)-Sar10; HArg; TATA scaffold on the 3 Cys) + DM1-(Me)-SS-(Me)-
notes: Bicycle drug conjugate (BDC)
B3: BCY6107 (peptide)
peptide: AXDCPLVNPLCLHPGWTC
modifications: not fully specified; as BCY6014 (N-terminal (β-Ala)-Sar10; HArg; TATA scaffold on the 3 Cys) + MMAE-Glu-Pro-Cit-Gly-hPhe-Tyr-Leu-
notes: Bicycle drug conjugate (BDC)
B4: BCY6105 (peptide)
peptide: AXDCPLVNPLCLHPGWTC
modifications: not fully specified; as BCY6014 (N-terminal (β-Ala)-Sar10; HArg; TATA scaffold on the 3 Cys) + MMAE-Ala-Ala-Asn
notes: Bicycle drug conjugate (BDC)
B5: BCY6061 (peptide)
peptide: AXDCPLVNPLCLHPGWTC
modifications: not fully specified; as BCY6014 (N-terminal (β-Ala)-Sar10; HArg; TATA scaffold on the 3 Cys) + ValLys-MMAE
notes: Bicycle drug conjugate (BDC)
B6: BCY6135 (peptide)
peptide: [βAla][Sar][Sar][Sar][Sar][Sar][Sar][Sar][Sar][Sar][Sar]A[hArg]DC[Hyp]LVNPLCLHP[dD]W[hArg]C
modifications: linker 15-22-29 via TATA; not fully specified (N-terminus, C-terminus); numbers in words are those of the source; also: DM1-SS- conjugate, site not given here
notes: Bicycle drug conjugate (BDC)
B7: BCY6031 (peptide)
peptide: AXDCPLVNPLCLHPGWTC
modifications: not fully specified; as BCY6014 (N-terminal (β-Ala)-Sar10; HArg; TATA scaffold on the 3 Cys) + DM1-SS-
notes: Bicycle drug conjugate (BDC)
B8: BCY6136 (peptide)
peptide: [βAla][Sar][Sar][Sar][Sar][Sar][Sar][Sar][Sar][Sar][Sar]A[hArg]DC[Hyp]LVNPLCLHP[dD]W[hArg]C
modifications: linker 15-22-29 via TATA; not fully specified (N-terminus, C-terminus); also: ValCit-MMAE conjugate, site not given here
notes: Bicycle drug conjugate (BDC); also called BT5528
B9: BCY6173 (peptide)
peptide: [βAla][Sar][Sar][Sar][Sar][Sar][Sar][Sar][Sar][Sar][Sar]A[hArg]DC[Hyp]LVNPLCLHP[dD]W[hArg]C
modifications: linker 15-22-29 via TATA; not fully specified (N-terminus, C-terminus); numbers in words are those of the source; also: DM1-SS(SO3H)- conjugate, site not given here
notes: Bicycle drug conjugate (BDC)
B10: BCY6174 (peptide)
peptide: [βAla][Sar][Sar][Sar][Sar][Sar][Sar][Sar][Sar][Sar][Sar]A[hArg]DC[Hyp]LVNPLCLHP[dD]W[hArg]C
modifications: linker 15-22-29 via TATA; not fully specified (N-terminus, C-terminus); also: ValLys-MMAE conjugate, site not given here
notes: Bicycle drug conjugate (BDC)
B11: BCY6077 (peptide)
peptide: AXDCPLVNPLCLHPGWTC
modifications: not fully specified; as BCY6014 (N-terminal (β-Ala)-Sar10; HArg; TATA scaffold on the 3 Cys) + DM1-SS-(Me)-SO3H-
notes: Bicycle drug conjugate (BDC)
B12: BCY6032 (peptide)
peptide: AXDCPLVNPLCLHPGWTC
modifications: not fully specified; as BCY6014 (N-terminal (β-Ala)-Sar10; HArg; TATA scaffold on the 3 Cys) + DM1-SS-(Me)-
notes: Bicycle drug conjugate (BDC)
B13: BCY6064 (peptide)
peptide: AXDCPLVNPLCLHPGWTC
modifications: not fully specified; as BCY6014 (N-terminal (β-Ala)-Sar10; HArg; TATA scaffold on the 3 Cys) + Non-cleavable (DM1)
notes: Bicycle drug conjugate (BDC)
B14: BCY6062 (peptide)
peptide: AXDCPLVNPLCLHPGWTC
modifications: not fully specified; as BCY6014 (N-terminal (β-Ala)-Sar10; HArg; TATA scaffold on the 3 Cys) + D-TrpCit-MMAE
notes: Bicycle drug conjugate (BDC)

Each binder was assayed against T1, Human EphA2 (Ecto), C-terminal polyHis (Human, UniProt P29317 24-537) (assay: FP competition vs Reference Compound C (Study 2)).
T1 construct: extracellular domain; R&D systems 3035-A2 or in-house
T1 sequence (P29317 24-537): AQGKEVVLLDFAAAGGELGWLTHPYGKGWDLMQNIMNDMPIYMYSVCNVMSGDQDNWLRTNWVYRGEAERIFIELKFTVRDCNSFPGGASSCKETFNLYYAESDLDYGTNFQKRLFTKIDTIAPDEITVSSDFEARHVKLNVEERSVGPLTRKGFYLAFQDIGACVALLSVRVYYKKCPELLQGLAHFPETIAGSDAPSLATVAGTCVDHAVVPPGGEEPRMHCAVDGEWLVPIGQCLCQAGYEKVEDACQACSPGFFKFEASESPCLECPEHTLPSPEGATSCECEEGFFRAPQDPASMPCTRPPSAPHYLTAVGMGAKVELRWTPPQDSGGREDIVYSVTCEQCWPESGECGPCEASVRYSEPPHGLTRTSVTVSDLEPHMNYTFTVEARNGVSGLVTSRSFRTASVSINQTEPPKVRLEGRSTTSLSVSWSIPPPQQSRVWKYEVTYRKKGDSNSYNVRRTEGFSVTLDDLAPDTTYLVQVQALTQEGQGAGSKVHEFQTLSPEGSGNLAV

B1 was tested. Which Ki did it give?
The Ki was 12.9 nM.

For B2, which Ki is on record?
Its Ki is 9.4 nM.

For B3, which Ki is on record?
The Ki was 19.2 nM.

B4 was tested. Which Ki did it give?
Its Ki is 8.86 nM.

These binders were tested against T2, Rat EphA2 (ligand binding), C-terminal polyHis (Rat) (assay: FP competition vs Reference Compound C (Study 2)).
T2 construct: In-house

Which Ki does the source give for B5 here?
Its Ki is 14.2 nM.

Which Ki does the source give for B6 here?
The Ki was 2.9 nM.

How did the Ki turn out when B7 was run?
The Ki was 20 nM.

For B8, which Ki is on record?
Its Ki is 3.2 nM.

For B9, which Ki is on record?
Its Ki is 2.5 nM.

For B10, which Ki is on record?
The Ki was 3 nM.

Target: T1, Human EphA2 (Ecto), C-terminal polyHis
Test: FP competition vs Reference Compound C (Study 2)
Remark: another data set of the same source

Which Ki does the source give for B5 here?
The Ki was 12 nM.

For B11, which Ki is on record?
Its Ki is 6.5 nM.

B12 was tested. Which Ki did it give?
The Ki was 11.4 nM.

B13 was tested. Which Ki did it give?
The Ki was 12.5 nM.

Which Ki does the source give for B7 here?
Its Ki is 12.5 nM.

For B14, which Ki is on record?
The Ki was 12.9 nM.

The binders below were run against T3, Mouse EphA2 (Ecto) (Mouse, UniProt Q03145 26-538) (assay: FP competition vs Reference Compound C (Study 2)).
T3 construct: extracellular domain; Fluorescence polarisation assays; not shown: Fc fusion (R&D Systems 639-A2) or C-terminal polyHis (Sino Biological 50586-M08H)
T3 sequence (Q03145 26-538): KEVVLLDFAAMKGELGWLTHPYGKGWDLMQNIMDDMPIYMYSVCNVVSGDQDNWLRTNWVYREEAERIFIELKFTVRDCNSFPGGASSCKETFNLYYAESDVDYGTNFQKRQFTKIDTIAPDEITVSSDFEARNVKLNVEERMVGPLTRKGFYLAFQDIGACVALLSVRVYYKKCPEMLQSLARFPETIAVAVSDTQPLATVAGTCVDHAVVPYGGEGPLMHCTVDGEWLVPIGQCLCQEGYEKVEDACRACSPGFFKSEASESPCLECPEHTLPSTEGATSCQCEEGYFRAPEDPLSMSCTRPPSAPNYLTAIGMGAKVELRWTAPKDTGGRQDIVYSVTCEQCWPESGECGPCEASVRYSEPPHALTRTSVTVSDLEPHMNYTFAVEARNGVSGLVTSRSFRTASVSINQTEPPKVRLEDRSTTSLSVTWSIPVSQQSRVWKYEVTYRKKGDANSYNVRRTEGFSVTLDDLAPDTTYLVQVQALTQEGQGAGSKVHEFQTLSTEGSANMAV

How did the Ki turn out when B5 was run?
The Ki was 32.3 nM.

B11 was tested. Which Ki did it give?
The Ki was 25.3 nM.

Which Ki does the source give for B12 here?
The Ki was 35.9 nM.

Which Ki does the source give for B13 here?
The Ki was 40.7 nM.

With B7 as the binder, how does the Ki read?
Its Ki is 35.1 nM.

For B14, which Ki is on record?
Its Ki is 20.3 nM.

Each binder was assayed against T1, Human EphA2 (Ecto), C-terminal polyHis (assay: FP competition vs Reference Compound C).

Which Ki does the source give for ACYVGKECAYMNVCA (linker 2-8-14 via TATA; not fully specified (C-terminus)) [Compound 29] here?
Its Ki is 210 nM.

Which Ki does the source give for ACTSCWAYPDSFCA (linker 2-5-13 via TATA; not fully specified (C-terminus)) [Compound 32] here?
Its Ki is 232 nM.

For ACSPTPACAVQNLCA (linker 2-8-14 via TATA; not fully specified (C-terminus)) [Compound 31], which Ki is on record?
Its Ki is 223 nM.

Target: T1, Human EphA2 (Ecto), C-terminal polyHis
Test: FP competition vs Reference Compound C
Remark: another data set of the same source

For B12, which Ki is on record?
Its Ki is 11.4 nM.

How did the Ki turn out when B7 was run?
The Ki was 12.6 nM.

What follows are binders tested against T3, Mouse EphA2 (Ecto) (assay: FP competition vs Reference Compound C).

How did the Ki turn out when B12 was run?
The Ki was 35.9 nM.

With B7 as the binder, how does the Ki read?
Its Ki is 34.7 nM.

These binders were tested against T1, Human EphA2 (Ecto), C-terminal polyHis (assay: FP competition vs Reference Compound A).

How did the Ki turn out when ACYVGKECAYMNVCA (linker 2-8-14 via TATA; not fully specified (C-terminus)) [Compound 29] was run?
Its Ki is 87.7 nM.

Which Ki does the source give for ACTSCWAYPDSFCA (linker 2-5-13 via TATA; not fully specified (C-terminus)) [Compound 32] here?
Its Ki is 151 nM.

ACQPSNHCAFMNYCA (linker 2-8-14 via TATA) [Compound 30] was tested. Which Ki did it give?
The Ki was 137 nM.

These binders were tested against T1, Human EphA2 (Ecto), C-terminal polyHis (assay: FP competition vs Reference Compound B).

ACYVGKECAYMNVCA (linker 2-8-14 via TATA; not fully specified (C-terminus)) [Compound 29] was tested. Which Ki did it give?
The Ki was 107 nM.

How did the Ki turn out when ACSPTPACAVQNLCA (linker 2-8-14 via TATA; not fully specified (C-terminus)) [Compound 31] was run?
The Ki was 177 nM.

With ACQPSNHCAFMNYCA (linker 2-8-14 via TATA) [Compound 30] as the binder, how does the Ki read?
The Ki was 187 nM.
